Columns and labels:
Settings in all cases: both partners purified
[1] = biological target: T1, ethylene receptor ethylene response 1 (ETR1), wild type (Arabidopsis, UniProt P49333 1-738); test: fluorescence polarisation; wild type ETR1 pre-incubated with 0.1 mM copper chloride, added to wild type AHP1-GFP; with 100 uM ethephon; 50 mM Tris-HCl pH 7.5, 100 mM KCl, 0.1% beta-D-dodecylmaltoside, 0.002% PMSF
T1 construct: Solubilised in beta-D-dodecylmaltoside; also called sensor kinase ETR1; AtETR1
T1 sequence (looked up): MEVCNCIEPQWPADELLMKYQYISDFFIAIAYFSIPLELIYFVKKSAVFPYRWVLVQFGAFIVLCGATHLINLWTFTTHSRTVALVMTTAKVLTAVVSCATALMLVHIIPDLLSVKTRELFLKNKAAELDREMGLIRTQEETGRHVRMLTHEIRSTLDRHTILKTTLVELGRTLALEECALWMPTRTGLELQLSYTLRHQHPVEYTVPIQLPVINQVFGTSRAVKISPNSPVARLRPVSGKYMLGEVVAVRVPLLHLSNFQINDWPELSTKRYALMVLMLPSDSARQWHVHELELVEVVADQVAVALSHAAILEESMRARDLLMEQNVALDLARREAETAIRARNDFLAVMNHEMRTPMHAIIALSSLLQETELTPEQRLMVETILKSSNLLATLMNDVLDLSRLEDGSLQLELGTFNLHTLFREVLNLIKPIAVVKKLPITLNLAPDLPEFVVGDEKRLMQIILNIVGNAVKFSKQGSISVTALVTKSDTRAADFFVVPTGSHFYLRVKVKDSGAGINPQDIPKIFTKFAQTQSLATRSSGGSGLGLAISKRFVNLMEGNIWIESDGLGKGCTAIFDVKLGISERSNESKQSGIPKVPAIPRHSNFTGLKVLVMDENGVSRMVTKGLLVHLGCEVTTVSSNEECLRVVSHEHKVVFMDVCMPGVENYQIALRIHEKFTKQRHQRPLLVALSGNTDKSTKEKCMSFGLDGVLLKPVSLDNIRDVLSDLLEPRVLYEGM

[2] = biological target: T1, ethylene receptor ethylene response 1 …; test: fluorescence polarisation; wild type ETR1 pre-incubated with 0.1 mM copper chloride, added to wild type AHP1-GFP; with 100 uM potassium cyanide; 50 mM Tris-HCl pH 7.5, 100 mM KCl, 0.1% beta-D-dodecylmaltoside, 0.002% PMSF
[3] = biological target: T1, ethylene receptor ethylene response 1 …; test: fluorescence polarisation; control: wild type ETR1 and wild type AHP1-GFP with cyanide or ethephon but without the copper cofactor; same buffer

Kd [1]: 7.7 µM | Kd [2]: 9 µM | Kd [3]: 1.4 µM
B1: AHP1-GFP(S65T), wild type Arabidopsis histidine-containing phosphotransfer protein 1 fused to green fluorescent protein (natural protein, UniProt Q9ZNV9 1-154, looked up)
chain: MDLVQKQKSLQDYTKSLFLEGILDSQFLQLQQLQDESNPDFVSQVVTLFFQDSDRILNDLSLSLDQQVVDFKKVDPHVHQLKGSSSSIGAQRVKNACVVFRSFCEQQNVEACHRCLQQVKQEYYLVKNRLETLFKLEQQIVASGGMIPAVELGF
notes: AHP1, Arabidopsis histidine-containing phosphotransfer protein 1; Theoretical molecular weight of AHP1-GFP printed as 45.6 kDa; also called wild type AHP1-GFP

Reference: publication PMC3166298, “Phosphorylation Alters the Interaction of the Arabidopsis Phosphotransfer Protein AHP1 with Its Sensor Kinase ETR1” (PLoS ONE, 2011)
